Reference: patent US10047402B2, “RASAL1 is a major tumor suppressor gene in thyroid cancer” (THE JOHNS HOPKINS UNIVERSITY, priority 2013, dated 2018)
Entries after “also recorded” stand apart in the source; their conditions may differ.

Tests used:
[1] = test system: thyroid cancer cell lines; test: Demethylation (MSP) and re-expression (RT-PCR) of RASAL1 after 5-Aza-dC treatment; format: cell-based, human; conditions: for demethylation of RASAL1 (MSP analysis): thyroid cancer cell lines, 5 μM 5-Aza-dC for 24 hours
Procedure: FIG. 2. Hypermethylation of RASAL1 and its re-expression induced by demethylation in thyroid cancer cells. […] After cells were treated with 5 μM 5-Aza-dC for 24 hours, RNA and genomic DNA were extracted and used for reverse-transcription polymerase chain reaction (RT-PCR) and MSP analysis, respectively. C) RT-PCR analysis of RASAL1 expression in thyroid cancer cell lines treated with or without demethylating agent 5-Aza-dC. D) MSP analysis of RASAL1 in matched normal and cancerous thyroid tissues. Six matched sample pairs are presented that had different methylation patterns between normal and matched tumor tissues. E) RASAL1 methylation levels represented by the indicated allelic methylation percentages (x-axis) and their frequencies (y-axis) in different types of thyroid cancers. ATC=anaplastic thyroid cancer; FTC=follicular thyroid cancer; PTC=papillary thyroid cancer.
DNA bisulfate treatment was performed as previously described (29). See Table 3 for MSP primer sequences. The relative level of methylation was normalized using the ratio obtained from the values of the gene of interest over the values of the internal reference gene (β-actin). The relative methylation level was calculated by the formula [M/(M+U)]×100%, in which M and U represent the density of the methylation and unmethylation band, respectively. Results represent the percentage of allelic methylation of the tumor.
RNA extraction and semi-quantitative RT-PCR were performed as previously described (Liu et al., 13(4) CLIN. CANCER RES. 1341-49 (2007)). Normal human thyroid RNA samples (Stratagene, La Jolla, Calif.) were used as the control. The RT-PCR primers are presented Table 3.

[2] = test system: K1 cell-derived xenograft tumors; test: Xenograft tumor formation in nude mice
Excerpt: The procedures for the construction of doxycycline (Dox)-inducible expression device for RASAL1 and transfection of K1 cells are as described in the Materials and Methods section below. […] Each time point represents the average±standard deviation of the values obtained from four mice in each group. Two-tailed paired Student t test was used to compare tumor sizes at week 5. H) Photographs of the tumors that were surgically removed from mice in each group after they were killed at the end of 5 weeks from the cell inoculation. I) Weight of individual tumors surgically removed from the animals in each group corresponding to (H). The average weight of the tumors from each group is indicated with a short horizontal bar.
The animals' care was in accord with the guidelines of Johns Hopkins Medical Institutions. K1 cells stably transfected with doxcycycline-inducible wild-type RASAL1 or RASAL1 mutants constructed as described above were injected (1×10^7 cells/mouse) subcutaneously into flanks of female nude mice at the age of 4 weeks (Harlan Sprague Dawley, Indianapolis, Ind.). Mice were fed vehicle or 0.2 mg/mL doxycycline, which was stored in a 0.5% sucrose solution in light-proof bottles, beginning when the tumor grew to a size of 2 mm at 1.5 weeks after the inoculation of cells. Tumor size was measured, and volume was calculated using the formula (length×width2)/2. After 5 weeks, mice were sacrificed, and tumors were surgically removed, photographed, and weighed.

[3] = test system: thyroid cancer cell lines; test: Colony formation in monolayer culture after transient RASAL1 transfection; format: cell-based, human; conditions: transient reintroduction, compared with control vector; six of seven thyroid cancer cell lines tested
WRO cells = test: Colony formation in soft agar, stable transfection; format: cell-based, human
Excerpt: FIG. 5. Examination of the effects of reintroduction of RASAL1 on RAS signaling and growth of thyroid cancer cells. A) A representative result of Western blotting analysis of RASAL1 expression and phosphorylation of ERK and Akt as well as other related proteins as indicated in various thyroid cancer cell lines that harbor different genetic alterations. B) A representative result of colony formation of thyroid cancer cells in monolayer culture after transfection of plasmids with or without insertion of RASAL1 cDNA followed by drug selection for 2 weeks. Cell colonies were stained with crystal violet. Scale bar=1 cm. C) Western blotting analysis of RASAL1 expression and phosphorylation of ERK and Akt and related proteins as indicated in three selected thyroid cancer cell lines stably transfected with RASAL1. D) Bar graph presentation of the colony numbers (mean±standard deviation) from three experiments for cells stably transfected with empty vectors or RASAL1 as in (C). Only cell colonies containing more than 50 cells were included.
(§1) FIG. 6. […] Scale bar=100 μm. […] Scale bar=100 μm.
Colony formation assays were performed as described previously (Liu et al., 92(6) J. CLIN. ENDOCRINOL. METAB. 2264-71 (2007)). […] Surviving colonies were counted after staining with crystal violet. […] After 3-4 weeks of culture, colonies were photographed and colony number was counted under a microscope.

C643 cells = test: Anchorage independent colony formation, stable transfection; format: cell-based, human; conditions: C643, stably transfected; n=3; control vector 92.67±18.15; P=0.03
K1 cells = test: Colony formation with doxycycline-inducible RASAL1 expression; format: cell-based, human; conditions: Dox-induced expression, control (no Dox) 86.00±8.54, P=0.006
Procedure: as §1
Colony formation assays were performed as described previously (Liu et al., 92(6) J. CLIN. ENDOCRINOL. METAB. 2264-71 (2007)). For colony formation in monolayer culture, transfected cells (1×10^5 cells/well) were inoculated into a […], and 24-h later cells were selected with blasticidin (2 μg/mL) for 2 weeks. Surviving colonies were counted after staining with crystal violet. For colony formation in soft agar, cells (5×10^3 cells/well) were plated in RPMI 1640 containing 10% FBS and 0.33% agar in 12-well plates. After 3-4 weeks of culture, colonies were photographed and colony number was counted under a microscope.
RASAL1 cDNA, which was amplified from normal thyroid (Stratagene, La Jolla, Calif.) and tagged with c-myc epitope, was inserted into a modified lenti-virus vector that was derived from plenti6/V5-DEST (Invitrogen, Grand Island, N.Y.). The virus packaging and cell infection were performed as described previously (Liu et al., 18 CANCER RES. 7311-19 (2009)). To construct the plasmid for doxycycline-inducible expression of RASAL1, the CMV promoter in the modified plenti6/V5-DEST plasmid was replaced with the Xho I-EcoR V fragment of plasmid pUHG10-3 (Gossen et al., 89(12) PROC. NATL. ACAD. SCI. USA 5547-51 (1992)), which contained hCMV minimal promoter with heptamerized upstream tet-operators. […]

[4] = test system: MAPK and PI3K signaling pathways (pERK, pAkt) in thyroid cancer cell lines; test: Western blotting of ERK and Akt phosphorylation after RASAL1 expression; format: cell-based, human; conditions: for pERK and pAkt levels: acute expression; for pERK and pAKT: stable expression
[5] = test system: RAS (RAS-GTP) in WRO cells; test: RAS pull-down (RAS activation) assay with ATP stimulation; format: cell-based, human; conditions: WRO cells stably transfected; ATP treatment
Procedure: as §1
The protocol for cell treatment was as described previously (Walker et al., 23(8) EMBO J. 1749-60 (2004)). Briefly, cells were serum starved for 2 h in serum-free medium at 24 h post-transfection of wild-type H-RAS. Cells were then treated with 50 μM ATP for 1 min. A RAS activation assay kit (Cell Biolabs, San Diego, Calif.) was used to assess RAS activity. After treatment, cells were washed twice with ice-cold PBS and then lysed in 1 mL of assay lysis buffer. After centrifugation at 14,000×g for 10 min at 4° C., cell lysates were incubated at 4° C. for 1 h with 40 μL of the RAF1 RAS-binding domain-agarose beads. The beads were pelleted and washed three times with assay lysis buffer, and then resuspended in 2× reducing SDS-PAGE sample buffer. The quantities of activated RAS (RAS-GTP) were analyzed by Western blotting using anti-RAS monoclonal antibody.

KAT18 cells = test: Anchorage independent colony formation, stable transfection; format: cell-based, human; conditions: KAT18, stably transfected; n=3; control vector 81.67±16.29; P=0.05

## Nc1ncn([C@H]2C[C@H](O)[C@@H](CO)O2)c(=O)n1 [5-Aza, 5-aza-2-deoxycytidine]
[1]; in six of the eight thyroid cancer cell lines tested, 5 μM for 24 hours
  RASAL1 expression (RT-PCR): restored its expression
[1]
  demethylation of RASAL1 (MSP analysis): induced demethylation of RASAL1
[1]; listed as 5-Aza-dC
  demethylation of RASAL1 (MSP analysis): Partial demethylation

B1: RASAL1: RASAL1 cDNA from normal thyroid, c-myc tagged, in lenti-virus vector, expressed in thyroid cancer cells; RasGAP tumor suppressor protein (protein, UniProt O95294 1-804, looked up)
RasGAP-activating-like …: MAKSSSLNVRVVEGRALPAKDVSGSSDPYCLVKVDDEVVARTATVWRSLGPFWGEEYTVHLPLDFHQLAFYVLDEDTVGHDDIIGKISLSREAITADPRGIDSWINLSRVDPDAEVQGEICLSVQMLEDGQGRCLRCHVLQARDLAPRDISGTSDPFARVFWGSQSLETSTIKKTRFPHWDEVLELREMPGAPSPLRVELWDWDMVGKNDFLGMVEFSPKTLQQKPPKGWFRLLPFPRAEEDSGGNLGALRVKVRLIEDRVLPSQCYQPLMELLMESVQGPAEEDTASPLALLEELTLGDCRQDLATKLVKLFLGRGLAGRFLDYLTRREVARTMDPNTLFRSNSLASKSMEQFMKLVGMPYLHEVLKPVISRVFEEKKYMELDPCKMDLGRTRRISFKGALSEEQMRETSLGLLTGYLGPIVDAIVGSVGRCPPAMRLAFKQLHRRVEERFPQAEHQDVKYLAISGFLFLRFFAPAILTPKLFDLRDQHADPQTSRSLLLLAKAVQSIGNLGQQLGQGKELWMAPLHPFLLQCVSRVRDFLDRLVDVDGDEAGVPARALFPPSAIVREGYLLKRKEEPAGLATRFAFKKRYVWLSGETLSFSKSPEWQMCHSIPVSHIRAVERVDEGAFQLPHVMQVVTQDGTGALHTTYLQCKNVNELNQWLSALRKASAPNPNKLAACHPGAFRSARWTCCLQAERSAAGCSRTHSAVTLGDWSDPLDPDAEAQTVYRQLLLGRDQLRLKLLEDSNMDTTLEADTGACPEVLARQRAATARLLEVLADLDRAHEEFQQQERGKAALGPLGP
modifications: c-myc tag
notes: RASAL1 cDNA from normal thyroid, c-myc tagged, in lenti-virus vector, expressed in thyroid cancer cells; RasGAP tumor suppressor protein
[2]; doxycycline-induced expression in K1 xenografts
  effect on tumor growth: statistically significant inhibitory effect
[2]; doxycycline-induced expression, after 5 weeks, without induction 1.01±0.54, P=0.047
  tumor weight: 0.66 ± 0.53 g
[2]; doxycycline-induced expression, week 5, without induction 0.94±0.52, P=0.02
  tumor volume: 0.49±0.4 cm3
[3]
  cell colony growth in monolayer culture: dramatically inhibited cell colony growth
WRO cells; WRO cell pools, wild-type vs mutants experiment, vector 52.00±9.54, P=0.009
  colony number: 24.00±7.81
WRO cells; WRO, stably transfected, n=3, control vector 48.00±13.45, P=0.03
  colony number: 21.67±6.35
C643 cells
  colony number: 55.33±9.71
K1 cells
  colony number: 40.33±6.03
[4]; BCPAP cells (BRAF mutation)
  pERK and pAkt levels: only reduced pAKT but not pERK
[4]; C643 cells (RAS mutation)
  pERK and pAkt levels: No effect was observed; also recorded: no effect on pERK and pAKT
[4]; FTC-133 cells (PTEN mutation)
  pERK and pAkt levels: reduced pERK but not pAKT
[4]; Hth7 cells (RAS mutation)
  pERK and pAkt levels: No effect was observed
[4]; KAT18 cells (wild-type RAS, BRAF, PIK3CA, PTEN)
  pERK and pAkt levels: decreased both pERK and pAkt levels
[4]; KAT18 cells
  pERK and pAKT: inhibition of pERK and pAKT was observed
[4]; SW1736 cells (BRAF mutation)
  pERK and pAkt levels: No effect was observed
[4]; TPC1 cells (RET-PTC1 rearrangement)
  pERK and pAkt levels: no effect
[4]; WRO cells (wild-type RAS, BRAF, PIK3CA, PTEN)
  pERK and pAkt levels: decreased both pERK and pAkt levels
[4]; WRO cells
  pERK and pAKT: inhibition of pERK and pAKT was observed
[5]
  effect on activation of RAS and increase in pAKT and pERK stimulated by ATP: suppressed the activation of RAS and the increase in pAKT and pERK
KAT18 cells
  colony number: 54.00±6.56
